For one molecule, IC50 results are on record in patent US20170266254A1 (AILERON THERAPEUTICS, published 2017).

Bridges are numbered along the chain shown (N, C = ends). [ ]: non-standard residue; d: D form. S5 = C=CCCC[C@](C)(N)C(=O)O Where only a bound is given, the exact number is not on record here.

For this assay, the target named is T1, C-terminally 6x Histidine-tagged Beta-Catenin (aa 134-668, 59 KD) (UniProt P35222 134-668).
T1 construct: range 134-668; Armadillo repeat region
T1 sequence: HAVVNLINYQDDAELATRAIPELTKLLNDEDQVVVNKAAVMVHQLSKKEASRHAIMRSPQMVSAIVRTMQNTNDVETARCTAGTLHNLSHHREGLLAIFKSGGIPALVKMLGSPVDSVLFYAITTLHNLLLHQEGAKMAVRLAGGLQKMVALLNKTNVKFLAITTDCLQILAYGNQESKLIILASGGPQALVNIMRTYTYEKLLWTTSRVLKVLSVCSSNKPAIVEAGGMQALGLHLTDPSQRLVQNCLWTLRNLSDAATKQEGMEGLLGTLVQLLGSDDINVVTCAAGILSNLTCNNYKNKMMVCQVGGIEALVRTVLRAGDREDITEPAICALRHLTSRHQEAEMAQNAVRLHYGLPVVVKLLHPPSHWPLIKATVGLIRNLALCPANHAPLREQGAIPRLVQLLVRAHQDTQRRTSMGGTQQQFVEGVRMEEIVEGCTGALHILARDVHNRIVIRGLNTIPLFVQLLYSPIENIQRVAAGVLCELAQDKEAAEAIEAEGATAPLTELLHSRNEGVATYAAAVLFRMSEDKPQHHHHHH
Description: competitive fluorescence polarization, FAM-labelled linear probe as competitor, His-tagged beta-catenin 134-668. The essentials: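 FP competition in 25 mM Tris-HCl pH 7.5, 200 mM NaCl, 5 mM CHAPS, 2 mM DTT at room temperature. Competitor peptides at 40–0.7 μM 2× working range, constant DMSO. Probe (benchmark peptide with N-terminal FAM via β-Ala spacer) from 25 nM 10× stock. Read after 3 h in the dark, ex 485/em 528 nm.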

B1: SP8 (peptide)
peptide: Ac-RDLANVKS[S5]LVN[S5]S-NH2
modifications: staple 9-13
SMILES: CC(=O)N[C@@H](CCCNC(=N)N)C(=O)N[C@@H](CC(=O)O)C(=O)N[C@@H](CC(C)C)C(=O)N[C@@H](C)C(=O)N[C@@H](CC(N)=O)C(=O)N[C@H](C(=O)N[C@@H](CCCCN)C(=O)N[C@@H](CO)C(=O)N[C@@]1(C)CCCC=CCCC[C@@](C)(C(=O)N[C@@H](CO)C(N)=O)NC(=O)[C@H](CC(N)=O)NC(=O)[C@H](C(C)C)NC(=O)[C@H](CC(C)C)NC1=O)C(C)C
Turning to B1, the IC50 is at least 100 µM.
